Measurements reported in patent US20020123091.

T1: PRO256 polypeptide
T1 chain: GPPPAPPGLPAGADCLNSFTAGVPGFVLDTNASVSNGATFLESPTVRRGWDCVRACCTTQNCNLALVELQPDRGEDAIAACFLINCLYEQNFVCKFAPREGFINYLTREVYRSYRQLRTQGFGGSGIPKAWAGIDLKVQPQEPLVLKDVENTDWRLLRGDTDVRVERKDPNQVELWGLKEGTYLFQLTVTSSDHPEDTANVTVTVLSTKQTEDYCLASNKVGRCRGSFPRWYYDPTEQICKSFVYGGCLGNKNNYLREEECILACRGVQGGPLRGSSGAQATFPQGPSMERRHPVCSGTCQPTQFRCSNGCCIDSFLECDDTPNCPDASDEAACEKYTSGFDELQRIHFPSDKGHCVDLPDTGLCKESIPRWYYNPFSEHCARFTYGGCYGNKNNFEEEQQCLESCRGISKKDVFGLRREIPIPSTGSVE

B1: human factor XIIa (Haematologic Technologies) (protein)
chain: IPPWEAPKEHKYKAEEHTVVLTVTGEPCHFPFQYHRQLYHKCTHKGRPGPQPWCATTPNFDQDQRWGYCLEPKKVKDHCSKHSPCQKGGTCVNMPSGPHCLCPQHLTGNHCQKEKCFEPQLLRFFHKNEIWYRTEQAAVARCQCKGPDAHCQRLASQACRTNPCLHGGRCLEVEGHRLCHCPVGYTGAFCDVDTKASCYDGRGLSYRGLARTTLSGAPCQPWASEATYRNVTAEQARNWGLGGHAFCRNPDNDIRPWCFVLNRDRLSWEYCDLAQCQTPTQAAPPTPVSPRLHVPLMPAQPAPPKPQPTTRTPPQSQTPGALPAKREQPPSLTRNGPLSCGQRLRKSLSSMTRVVGGLVALRGAHPYIAALYWGHSFCAGSLIAPCWVLTAAHCLQDRPAPEDLTVVLGQERRNHSCEPCQTLAVRSYRLHEAFSPVSYQHDLALLRLQEDADGSCALLSPYVQPVCLPSGAARPSETTLCQVAGWGHQFEGAEEYASFLQEAQVPFLSLERCSAPDVHGSSILPGMLCAGFLEGGTDACQGDSGGPLVCEDQAAERRLTLQGIISWGSGCGDRNKPGVYTDVAYYLAWIREHTVS
B2: hepatocyte growth factor activator (as present in human serum) (protein)
chain: VQLSPDLLATLPEPASPGRQACGRRHKKRTFLRPRIIGGSSSLPGSHPWLAAIYIGDSFCAGSLVHTCWVVSAAHCFSHSPPRDSVSVVLGQHFFNRTTDVTQTFGIEKYIPYTLYSVFNPSDHDLVLIRLKKKGDRCATRSQFVQPICLPEPGSTFPAGHKCQIAGWGHLDENVSGYSSSLREALVPLVADHKCSSPEVYGADISPNMLCAGYFDCKSDACQGDSGGPLACEKNGVAYLYGIISWGDGCGRLHKPGVYTRVANYVDWINDRIRPPRRLVAPS

How the values were obtained:
[1] = biological target: single-chain hepatocyte growth factor (scHGF)
[2] = biological target: T1, PRO256 polypeptide

Sequence of single-chain hepatocyte growth factor (scHGF) (P14210 whole entry): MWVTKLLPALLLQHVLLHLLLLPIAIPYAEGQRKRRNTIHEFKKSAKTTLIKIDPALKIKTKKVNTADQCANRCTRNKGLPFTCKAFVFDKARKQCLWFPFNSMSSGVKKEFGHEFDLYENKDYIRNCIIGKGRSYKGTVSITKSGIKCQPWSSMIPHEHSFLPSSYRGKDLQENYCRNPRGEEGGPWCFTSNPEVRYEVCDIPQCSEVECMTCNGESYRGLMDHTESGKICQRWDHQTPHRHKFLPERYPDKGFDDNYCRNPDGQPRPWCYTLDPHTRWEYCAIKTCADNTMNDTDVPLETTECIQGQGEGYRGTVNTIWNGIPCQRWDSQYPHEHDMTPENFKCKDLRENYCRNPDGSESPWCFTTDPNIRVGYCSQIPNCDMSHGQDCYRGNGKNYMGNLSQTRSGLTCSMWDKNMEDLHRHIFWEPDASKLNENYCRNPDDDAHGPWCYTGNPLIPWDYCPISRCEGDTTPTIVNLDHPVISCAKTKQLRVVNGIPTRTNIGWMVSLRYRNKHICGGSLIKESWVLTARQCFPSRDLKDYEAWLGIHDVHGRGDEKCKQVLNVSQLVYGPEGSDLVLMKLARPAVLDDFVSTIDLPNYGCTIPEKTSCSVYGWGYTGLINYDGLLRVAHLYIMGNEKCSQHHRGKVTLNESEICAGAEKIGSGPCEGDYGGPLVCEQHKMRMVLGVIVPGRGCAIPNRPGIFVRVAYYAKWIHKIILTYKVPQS

| Protein | conversion of ^125I-scHGF into its two chain form, factor XIIa 40 nM, SDS-PAGE/autoradiography [1] | conversion of scHGF into its two chain form, factor XIIa 20 nM, SDS-PAGE with autoradiography or Coomassie staining [1] | factor XIIa (40 nM) conversion of ^125I-scHGF into its two chain form, SDS-PAGE/autoradiography, with or without PRO256 [2] | human serum (10%)-mediated conversion of ^125I-scHGF into its two chain form, SDS-PAGE/autoradiography, PRO256 at 1 µM [2] |
| --- | --- | --- | --- | --- |
| B1 | factor XIIa converts ^125I-scHGF into its two chain form | Both labelled and unlabelled HGF were converted identically, suggesting that the iodination of scHGF did not impair processing by its activators, such as factor XIIa. | In the presence or absence of PRO256, factor XIIa converts ^125I-scHGF into its two chain form, thereby indicating lack of inhibition by PRO256. |  |
| B2 |  |  |  | In the presence of the inhibitor PRO256 (at time intervals 0, 0.5 hr, 1 hr, 2 hr, and 4 hr), ^125I-sc-HGF is not converted two chain form as indicated by the top heavy band on the gel. |
